According to the supplement of paper PMC9732359:
± gives the uncertainty stated by the source.

Experiment: protein stability index of a GFP-peptide fusion (yeast GPS) (PSI 1-4); higher = more stable; sorted into four equal gates, so the index is relative within each strain
Summary of the method: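 Mid-log yeast cultures in leucine-free medium, carrying a pooled plasmid library, were sorted into four equal gates by their GFP/Cherry fluorescence ratio. Each plasmid expressed Cherry along with GFP fused upstream of a tiled 17-residue yeast protein peptide. Plasmids recovered from each gate were PCR-amplified and Illumina-sequenced, with reads assigned to strains by barcodes. The protein stability index was obtained by summing each gate's read frequency weighted by its gate number.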

| Sequence | protein stability index (doa10∆) | protein stability index (pdr5∆) | protein stability index (san1∆) | protein stability index (ubr1∆) |
| --- | --- | --- | --- | --- |
| SGQTPVQSKARYTVRTF [RPL11A] | 2.29 ± 0.094 | 2.06 ± 0.081 | 1.72 ± 0.13 | 1.71 ± 0.089 |
| ESEYREFESELKNVEET [ESC2] | 3.54 ± 0.25 | 3.47 ± 0.2 | 3.2 ± 0.18 | 3.31 ± 0.15 |
| KLTSEETVFNYRLMIKR [GRR1] | 3.02 ± 0.12 | 2.96 ± 0.12 | 2.56 ± 0.12 | 2.82 ± 0.095 |
| VLKVYSMINNSNQAVGQ [SRB8] | 2.85 ± 0.07 | 2.78 ± 0.065 | 2.83 ± 0.067 | 2.63 ± 0.051 |
| AEKELEAEIECFDSTTG [RRP40] | 3.21 ± 0.17 | 3.06 ± 0.14 | 3.05 ± 0.1 | 2.66 ± 0.14 |
| VVDFTSLPEELKKRYDL [YMR129W/POM152] | 2.14 ± 0.21 | 2.33 ± 0.15 | 2.96 ± 0.088 | 2.62 ± 0.12 |
| GNVFSPIDNNIIFASTK [SNU114] | 3.16 ± 0.062 | 2.97 ± 0.092 | 2.97 ± 0.052 | 2.95 ± 0.046 |
| APIPKGRVKYTKRQKHF [POP1] | 1.2 ± 0.13 | 1.9 ± 0.12 | 2.2 ± 0.13 | 1.77 ± 0.082 |
| NVDGNIKIVYALTTIKG [RPS18A] |  | 1.49 ± 0.18 |  | 1.23 ± 0.11 |
| FQKFLTGHPKGAAGAWM [FAS2] | 1.31 ± 0.25 |  |  | 1.56 ± 0.18 |
| MTTTIGSPQMLANEERL [RGR1] |  |  |  | 2.63 ± 0.25 |
| TLESLENLVVADLESFA [COR1] | 2.47 ± 0.066 | 2.67 ± 0.063 | 2.44 ± 0.065 | 2.3 ± 0.043 |
| LTATPNSINKTTVPFKE [POP1] | 1.75 ± 0.061 | 2.44 ± 0.06 | 1.66 ± 0.14 | 2.48 ± 0.054 |
| IPDMSKNVELGWKPLRY [SNU114] | 3.29 ± 0.24 | 3.23 ± 0.23 | 2.58 ± 0.23 | 3.22 ± 0.15 |
| MLGRAGRPRYDTFGEGI [BRR2] | 3.25 ± 0.12 | 2.81 ± 0.14 | 3.15 ± 0.087 | 3.31 ± 0.15 |
| YSENGKHDSLRYRLLSD [RPN1] | 2.5 ± 0.073 | 2.49 ± 0.075 | 2.51 ± 0.1 | 2.49 ± 0.1 |
| TIRYLMQKQHEMKTQAA [SNF6] | 2.83 ± 0.049 | 2.98 ± 0.051 | 2.99 ± 0.046 | 2.9 ± 0.032 |
| KGDRALLVKLSKRLPLR [BRR2] | 2.47 ± 0.047 | 2.57 ± 0.042 | 2.34 ± 0.094 | 2.57 ± 0.042 |
| VSNLMGRNIGHPIIQDK [RPB3] | 3.42 ± 0.079 | 3.43 ± 0.072 | 3.17 ± 0.053 | 3.22 ± 0.084 |
| ISSLFTITTILILGLNT [YML103C/NUP188] | 1.51 ± 0.078 | 1.75 ± 0.094 | 1.46 ± 0.2 | 1.75 ± 0.065 |
| VNWLAYTYLYVRMLASP [BRR2] | 1.11 ± 0.14 | 1.14 ± 0.18 | 1.31 ± 0.19 | 1.24 ± 0.1 |
| MFNDLNSMDISMFSGLD [MED2] | 3.18 ± 0.06 | 3.26 ± 0.054 | 3.15 ± 0.037 | 3.12 ± 0.052 |
| NLTPANILNMSMNNDFQ [PGD1] | 2.86 ± 0.11 | 3.22 ± 0.091 | 3.01 ± 0.068 | 2.89 ± 0.052 |
| WAVKEGPLAEEPIYGVQ [SNU114] | 2.8 ± 0.067 | 2.53 ± 0.079 | 2.76 ± 0.061 | 1.8 ± 0.047 |
| GVDDQILATNSLRILAK [YJL039C/NUP192] | 3.14 ± 0.13 | 3.08 ± 0.08 | 3.12 ± 0.069 | 3.24 ± 0.076 |
| NLGIPKIAYRGVKDCQE [SSN2] | 1.49 ± 0.2 | 1.58 ± 0.19 | 1.54 ± 0.26 | 1.13 ± 0.16 |
| NSCFSDGSQQNLQQDKT [REC8] | 2.77 ± 0.09 | 2.76 ± 0.13 | 2.18 ± 0.2 | 2.88 ± 0.059 |

| Sequence | protein stability index (doa10∆) | protein stability index (pdr5∆) | protein stability index (san1∆) | protein stability index (ubr1∆) |
| --- | --- | --- | --- | --- |
| SFTLLNQLSQTNKLLFK [NUT1] | 2.81 ± 0.09 | 2.35 ± 0.055 | 2.71 ± 0.077 | 2.33 ± 0.057 |
| SQPKIGYGSNKKTKFLS [RPL32] | 1.23 ± 0.15 | 1.52 ± 0.16 |  | 1.38 ± 0.096 |
| ANTGGQDKIELSEEETL [SNF2] | 2.62 ± 0.12 | 2.8 ± 0.25 | 3.08 ± 0.063 | 2.94 ± 0.12 |
| ADDVFTGTGLQDENIGL [RPC31] | 3.46 ± 0.11 | 3.44 ± 0.096 | 3.21 ± 0.057 | 3.33 ± 0.07 |
| GEITKTENEKFISYHDK [NUT1] | 3.31 ± 0.097 | 3.35 ± 0.077 | 3.39 ± 0.057 | 3.17 ± 0.079 |
| KNDNIKKSVNKLDKQIN [POP6] | 2.78 ± 0.049 | 2.87 ± 0.059 | 2.73 ± 0.059 | 2.78 ± 0.046 |
| IVKFKQKEEGRSFTKAI [YLR335W/NUP2] | 3.13 ± 0.069 | 3.09 ± 0.066 | 3.24 ± 0.05 | 3.29 ± 0.047 |
| NEIIRSLSDEVMRNEIR [SIR4] | 2.64 ± 0.058 | 2.1 ± 0.048 | 2.52 ± 0.068 | 2.39 ± 0.049 |
| VQLSPSNPQHIIQPFLD [RGR1] | 2.73 ± 0.051 | 2.85 ± 0.062 | 2.51 ± 0.063 | 2.82 ± 0.032 |
| AILVPMTVNDQPIEKNG [YJR042W/NUP85] | 2.44 ± 0.11 | 1.79 ± 0.073 | 2.84 ± 0.074 | 2.8 ± 0.079 |
| PNTSDNNNNSNNHNMRN [SWI1] | 3.12 ± 0.053 | 3.02 ± 0.059 | 2.93 ± 0.046 | 3.15 ± 0.038 |
| RLRKRVTIIPLDKIYTR [SMC2] | 2 ± 0.073 | 1.66 ± 0.095 | 1.84 ± 0.071 | 1.36 ± 0.051 |
| VQPTIGQLPQLPKLNLP [SNF5] | 3.05 ± 0.044 | 2.75 ± 0.046 | 2.49 ± 0.057 | 3.08 ± 0.043 |
| STPYLEILVEESGLRPV [PCI8] | 1.57 ± 0.048 | 1.55 ± 0.091 | 1.54 ± 0.19 | 2.17 ± 0.091 |
| EPPAGVALPPGSNYNPY [CYT1] | 2.77 ± 0.12 | 3.13 ± 0.076 | 2.83 ± 0.12 | 3.15 ± 0.047 |
| DLKPANIMVTIDGCVKI [SSN3] | 2.58 ± 0.29 | 1.83 ± 0.16 |  | 1.69 ± 0.25 |
| KTDLELLVERLKEDDSS [RPN1] | 3.18 ± 0.11 | 3.3 ± 0.14 | 3.05 ± 0.1 | 3.18 ± 0.17 |
| DWQMMTSPVTGATEKRK [CSL4] | 2.44 ± 0.07 | 2.03 ± 0.11 | 2.3 ± 0.12 | 1.52 ± 0.062 |
| NSLKETLQDFHLIFSNA [SNF2] | 2.85 ± 0.072 | 2.82 ± 0.068 | 2.27 ± 0.13 | 2.44 ± 0.092 |
| TNNVLRKLGLLGDKEDE [MTW1] | 2.27 ± 0.048 | 2.35 ± 0.054 | 1.85 ± 0.085 | 2.58 ± 0.049 |
| AIGYPTLPSVGHTLINN [RPP0] | 3.06 ± 0.21 | 2.65 ± 0.13 |  |  |
| ISVGESGDRLTRASKVL [RPL11A] |  | 3.08 ± 0.19 |  | 3.4 ± 0.22 |
| VSLVVNFQISKKMDDYI [PRP28] | 2.39 ± 0.066 | 2.05 ± 0.07 | 2.38 ± 0.1 | 2.03 ± 0.05 |
| DTRSTQGPIVADKNCAK [PUP1] | 3.13 ± 0.11 | 3.59 ± 0.12 | 3.15 ± 0.1 | 3.04 ± 0.086 |
| FDHNDKKLSINSAARNI [PRE7] | 2.72 ± 0.059 | 2.47 ± 0.059 | 2.4 ± 0.055 | 2.83 ± 0.065 |
| SWSSSAAVIMRCKIYFF [PCI8] | 1.24 ± 0.055 | 1.71 ± 0.058 | 1.34 ± 0.11 | 1.28 ± 0.047 |
